Source: PMC11429891

Target: human recombinant SNAP25 (Synaptosomal Associated Protein 25) (human) (UniProt P60880)
Test: SPR

human recombinant SNAP25 (Synaptosomal Associated Protein 25) (human), sequence (P60880 whole entry): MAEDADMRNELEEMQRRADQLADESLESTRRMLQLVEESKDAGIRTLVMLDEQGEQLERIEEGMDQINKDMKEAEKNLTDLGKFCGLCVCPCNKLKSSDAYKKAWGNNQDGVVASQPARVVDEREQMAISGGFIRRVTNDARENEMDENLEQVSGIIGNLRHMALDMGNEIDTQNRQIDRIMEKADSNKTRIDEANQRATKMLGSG

Substance: Human type V Collagen (from UniProt P20908 38-1605; P05997 27-1229) (complex)
- Kd: 7.2 µM
